Reference: patent US20070093443A1 (CATALYST BIOSCIENCES, published 2007)
Substitutions are numbered along the chain they refer to. Names may count otherwise.

T1: Complement C2 (human) (human, UniProt P06681 21-752)
T1 sequence: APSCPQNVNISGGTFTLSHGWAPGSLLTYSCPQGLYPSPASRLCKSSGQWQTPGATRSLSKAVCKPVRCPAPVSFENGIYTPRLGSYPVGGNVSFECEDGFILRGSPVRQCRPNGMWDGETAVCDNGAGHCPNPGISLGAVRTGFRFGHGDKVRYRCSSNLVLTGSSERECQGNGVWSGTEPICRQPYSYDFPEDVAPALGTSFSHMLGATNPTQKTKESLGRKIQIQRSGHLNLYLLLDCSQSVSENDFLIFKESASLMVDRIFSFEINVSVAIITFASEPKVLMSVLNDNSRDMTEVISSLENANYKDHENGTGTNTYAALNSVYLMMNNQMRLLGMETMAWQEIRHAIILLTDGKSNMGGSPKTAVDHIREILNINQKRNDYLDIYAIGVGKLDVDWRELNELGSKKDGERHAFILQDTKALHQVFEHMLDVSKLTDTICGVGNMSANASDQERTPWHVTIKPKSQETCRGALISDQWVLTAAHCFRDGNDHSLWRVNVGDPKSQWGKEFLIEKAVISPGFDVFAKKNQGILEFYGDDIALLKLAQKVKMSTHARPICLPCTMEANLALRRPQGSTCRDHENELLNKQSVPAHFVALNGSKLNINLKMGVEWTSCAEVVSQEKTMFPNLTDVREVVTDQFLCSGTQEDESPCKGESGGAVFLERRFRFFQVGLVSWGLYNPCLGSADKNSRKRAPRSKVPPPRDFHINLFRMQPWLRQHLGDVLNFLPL

T2: alpha-2 macroglobulin (in human plasma) (human, UniProt P01023 24-1474)
T2 construct: Not purified: the endogenous protein of the plasma
T2 sequence (looked up): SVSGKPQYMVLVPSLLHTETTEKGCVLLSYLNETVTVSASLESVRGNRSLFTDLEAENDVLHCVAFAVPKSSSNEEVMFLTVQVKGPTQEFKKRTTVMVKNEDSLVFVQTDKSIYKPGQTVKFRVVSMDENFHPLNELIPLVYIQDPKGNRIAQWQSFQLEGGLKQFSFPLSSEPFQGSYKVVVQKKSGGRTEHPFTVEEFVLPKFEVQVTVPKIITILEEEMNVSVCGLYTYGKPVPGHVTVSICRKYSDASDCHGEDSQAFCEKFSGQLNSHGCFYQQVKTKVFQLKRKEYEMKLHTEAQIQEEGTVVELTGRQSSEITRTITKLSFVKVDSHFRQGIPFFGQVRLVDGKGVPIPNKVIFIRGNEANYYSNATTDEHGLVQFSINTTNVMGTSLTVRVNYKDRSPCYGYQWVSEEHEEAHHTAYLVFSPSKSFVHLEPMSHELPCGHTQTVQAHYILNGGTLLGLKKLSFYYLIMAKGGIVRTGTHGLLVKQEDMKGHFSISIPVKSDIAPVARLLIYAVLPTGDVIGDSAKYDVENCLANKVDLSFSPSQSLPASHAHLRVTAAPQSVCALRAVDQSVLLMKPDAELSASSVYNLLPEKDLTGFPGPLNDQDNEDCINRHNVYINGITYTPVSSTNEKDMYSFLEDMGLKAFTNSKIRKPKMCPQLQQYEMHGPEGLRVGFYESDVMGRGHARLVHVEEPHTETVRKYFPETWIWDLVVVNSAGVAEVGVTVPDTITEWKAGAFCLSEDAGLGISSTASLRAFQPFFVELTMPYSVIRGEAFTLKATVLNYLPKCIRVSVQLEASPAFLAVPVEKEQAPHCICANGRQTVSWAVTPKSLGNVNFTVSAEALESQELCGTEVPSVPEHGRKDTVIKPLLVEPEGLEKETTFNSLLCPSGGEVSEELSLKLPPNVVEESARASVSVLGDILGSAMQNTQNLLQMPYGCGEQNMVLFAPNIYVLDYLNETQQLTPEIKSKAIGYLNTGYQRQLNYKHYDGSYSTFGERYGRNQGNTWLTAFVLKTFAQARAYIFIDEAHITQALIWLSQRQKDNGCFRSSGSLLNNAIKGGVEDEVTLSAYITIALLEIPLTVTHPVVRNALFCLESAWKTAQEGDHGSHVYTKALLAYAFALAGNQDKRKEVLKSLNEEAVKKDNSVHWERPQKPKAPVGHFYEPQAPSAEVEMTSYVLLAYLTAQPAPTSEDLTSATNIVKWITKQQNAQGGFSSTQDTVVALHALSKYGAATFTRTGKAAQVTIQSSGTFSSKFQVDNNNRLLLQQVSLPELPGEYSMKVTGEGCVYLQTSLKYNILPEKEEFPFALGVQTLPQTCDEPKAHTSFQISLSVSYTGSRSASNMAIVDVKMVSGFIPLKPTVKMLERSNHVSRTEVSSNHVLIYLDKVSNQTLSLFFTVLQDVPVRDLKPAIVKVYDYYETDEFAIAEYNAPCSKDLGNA

B1: modified MT-SP1 CB155 (Y146D/K224F) protease domain (enzyme)
chain: VVGGTDADEGEWPWQVSLHALGQGHICGASLISPNWLVSAAHCYIDDRGFRYSDPTQWTAFLGLHDQSQRSAPGVQERRLKRIISHPFFNDFTFDYDIALLELEKPAEYSSMVRPICLPDASHVFPAGKAIWVTGWGHTQDGGTGALILQKGEIRVINQTTCENLLPQQITPRMMCVGFLSGGVDSCQGDSGGPLSSVEADGRIFQAGVVSWGDGCAQRNFPGVYTRLPLFRDWIKENTGV
B2: modified MT-SP1 CB483 (I41T/Y146D/G151L/Q175D/K224N) protease domain (enzyme)
chain: B1 chain with I26T, G145L, Q169D, F221N
B3: modified MT-SP1 CB490 (I41T/Y146E/G151L/Q175D/K224R) protease domain (enzyme)
chain: B1 chain with I26T, D141E, G145L, Q169D, F221R
B4: modified MT-SP1 CB486 (I41T/Y146E/Q175D/K224R) protease domain (enzyme)
chain: B1 chain with I26T, D141E, Q169D, F221R
B5: modified MT-SP1 CB480 (I41T/Y146D/G151L/Q175D/K224F) protease domain (enzyme)
chain: B1 chain with I26T, G145L, Q169D
B6: modified MT-SP1 CB488 (I41T/Y146E/G151L/Q175D/K224F) protease domain (enzyme)
chain: B1 chain with I26T, D141E, G145L, Q169D
B7: modified MT-SP1 CB481 (I41T/Y146D/G151L/Q175D/K224L) protease domain (enzyme)
chain: B1 chain with I26T, G145L, Q169D, F221L
B8: modified MT-SP1 CB422 (I41T/Y146E/Q175D/K224N) protease domain (enzyme)
chain: B1 chain with I26T, D141E, Q169D, F221N
B9: modified MT-SP1 CB476 (I41T/Y146D/Q175D/K224L) protease domain (enzyme)
chain: B1 chain with I26T, Q169D, F221L
B10: modified MT-SP1 CB487 (I41T/Y146E/G151L/Q175D/K224N) protease domain (enzyme)
chain: B1 chain with I26T, D141E, G145L, Q169D, F221N
B11: modified MT-SP1 CB478 (I41T/Y146D/Q175D/K224N) protease domain (enzyme)
chain: B1 chain with I26T, Q169D, F221N
B12: modified MT-SP1 CB489 (I41T/Y146E/G151L/Q175D/K224L) protease domain (enzyme)
chain: B1 chain with I26T, D141E, G145L, Q169D, F221L
B13: modified MT-SP1 CB482 (I41T/Y146D/G151L/Q175D/K224R) protease domain (enzyme)
chain: B1 chain with I26T, G145L, Q169D, F221R
B14: modified MT-SP1 CB477 (I41T/Y146D/Q175D/K224R) protease domain (enzyme)
chain: B1 chain with I26T, Q169D, F221R
B15: modified MT-SP1 CB421 (I41T/Y146D/Q175D/K224F) protease domain (enzyme)
chain: B1 chain with I26T, Q169D
B16: modified MT-SP1 CB485 (I41T/Y146E/Q175D/K224L) protease domain (enzyme)
chain: B1 chain with I26T, D141E, Q169D, F221L

Assays:
M84R ecotin = target: T3, M84R ecotin (UniProt P23827 21-162); experiment: active site titration of purified CB155 with M84R ecotin, residual Ac-RQAR-AMC activity
T3 construct: Position 84 is probably counted on mature ecotin, not on the precursor entry; also called ecotin M84R
Method: The purified protein was assayed for specific activity, purity, and endotoxin levels. The specific activity or amount of active protease in each prep was determined by active site titration by incubation with an inhibitor that binds in the active site of the functional protease at varying concentrations followed by addition to a fluorogenic substrate for measurement of substrate proteolysis. The amount of active enzyme was calculated from a plot of the residual protease activity against the inhibitor concentration where the intercept corresponds to the concentration of active protease. […] Enzyme activity was monitored at 30° C. in the presence of 40 μM Ac-RQAR-AMC in assay buffer containing 50 mM Tris pH 8.0, 50 mM NaCl, and 0.01% Tween-20 (for trypsin activity, 10 mM CaCl2 was added) on a Gemini XPS spectrafluorimeter (Excitation: 380 nm; Emission: 450 nm; Cut-off: 435 mn). Purity of the protein preparation was assessed by resolution of the protein product on SDS-PAGE followed by staining with Coomassie Blue. […] The level of endotoxin in each prep was determined by Liumlus Amebocyte Lysate Chromo-LAL assay (Associated of Cape Cod) according to the manufacturer's protocol with the following modifications. […]

Complement C2 (human) = target: T1, Complement C2 (human); experiment: cell-based or functional assay
[1] = target: T2, alpha-2 macroglobulin (in human plasma); experiment: Ac-RQAR-AMC activity of protease after 5 min in human citrated plasma, with and without M84R ecotin
Method: In addition, the percent protease unbound by alpha-2 macroglobulin (a2M) also was determined. Inactivation of a protease by alpha-2 macroglobulin traps the protease in a complex where it is still able to turn over small fluorescent substrates, but unable to access large protein substrates. This property of alpha-2 macroglobulin complicates the assessment of a proteases activity in plasma. To determine the actual activity of the free, uncomplexed protease in plasma, a two step measurement is required. First, the sample's activity on fluorescent substrates is measured. […] The percent unbound by alpha-2 macroglobulin activity is the percentage of the plasma residual activity that is inhibited by the addition of the ecotin. Briefly, in a 0.2 mL PCR tube, 1 μL 10× protease was mixed with 9 μL human plasma in citrate (Innovative Research). A uninhibted control also was prepeared containing 1 μL 10× protease mixed with 9 μL PBST. The mixtures were incubated for 5 minutes at 37° C. The samples were diluted 250 fold in PBST and stored on ice. Two 50 μL aliquots for each sample were transferred to an opaque assay plate (Costar #3694) containing 2 μL PBST or 2 μL 520 nM M84R ecotin. The plates were incubated 10 minutes at room temperature. Five microliters 0.4 mM Ac-RQAR-AMC substrate was added and the fluorescence was measured over time with a SpectraMax M5 spectrafluorometer (Molecular Devices) set to read every 20 seconds for 30 minutes at 30° C. (Ex: 380 nm, EM: 450 nm, Cut-off: 435 nm). The percent unbound by alpha-2 macroglobulin was calculated with the following formula: (1-([(Protease in plasma/Protease in PBST)−(Protease in plasma+ecotin/Protease in PBST)]/(Protease in plasma/Protease in PBST)))*100.

| Binder | % Unbound by a2M [1] | other results |
| --- | --- | --- |
| B1 |  | binding result (M84R ecotin): binds; IC50 based on gel densitometry of C2 cleavage products (purified C2) (Complement C2 (human)): 2.2 nM; IC50 for hemolysis in C2 depleted serum supplemented with protease-treated C2 (Complement C2 (human)): 17 nM; IC50 of the proteases for cleavage of C2 (Western blot densitometry, 5% human plasma, 1 h 37 C) (Complement C2 (human)): 18.4 nM |
| B2 | 73% |  |
| B3 | 0% |  |
| B4 | 44% |  |
| B5 | 88% |  |
| B6 | 85% |  |
| B7 | 72% |  |
| B8 | 83% |  |
| B9 | 89% |  |
| B10 | 53% |  |
| B11 | 89% |  |
| B12 | 58% |  |
| B13 | 10% |  |
| B14 | 67% |  |
| B15 | 84% |  |
| B16 | 82% |  |
